The chains are these.
B1: Zinc finger homeobox protein 4, residues 2562 to 2617; numbered along this chain, Q86UP3 (parent)
chain: RLRTTITPEQLEILYEKYLLDSNPTRKMLDHIAREVGLKKRVVQVWFQNTRARERK

± gives the uncertainty stated by the source.

The variants in this series derive from B1. The experiment in a line: abundance fitness (aPCA) (normalised: wild type 0, dead -1); higher = more abundant; growth selection in yeast, the domain comes from the species named. The note with it: Homo sapiens.
Take RLRTTITPEQLEILYEKYLLDSNPTRKMLDHIAREVGLKKRVVQVWFQNTAARERK [R51A]: the abundance fitness was 0.17 ± 0.053. The figure for RLRTTITPEQLEILYEKYLLDSNPTRKMLDHIAREVGLKKRVVQVWFQNTWARERK [R51W] is 0.057 ± 0.078. With RLRTTNTPEQLEILYEKYLLDSNPTRKMLDHIAREVGLKKRVVQVWFQNTRARERK [I6N], the abundance fitness was -0.708 ± 0.32. Turning to RLRTTSTPEQLEILYEKYLLDSNPTRKMLDHIAREVGLKKRVVQVWFQNTRARERK [I6S], the abundance fitness was -0.652 ± 0.06. With RLRTTITPEQLEILIEKYLLDSNPTRKMLDHIAREVGLKKRVVQVWFQNTRARERK [Y15I], the abundance fitness is -0.224 ± 0.093. For the variant RLRTTITPEQLEILAEKYLLDSNPTRKMLDHIAREVGLKKRVVQVWFQNTRARERK [Y15A], the abundance fitness is -0.105 ± 0.068.

For the variant RLRTTIWPEQLEILYEKYLLDSNPTRKMLDHIAREVGLKKRVVQVWFQNTRARERK [T7W], the abundance fitness is -0.708 ± 0.24.

RLRTTIIPEQLEILYEKYLLDSNPTRKMLDHIAREVGLKKRVVQVWFQNTRARERK [T7I]: the abundance fitness is -0.756 ± 0.43. Turning to RLRTTIAPEQLEILYEKYLLDSNPTRKMLDHIAREVGLKKRVVQVWFQNTRARERK [T7A], the abundance fitness was 0.208 ± 0.12. In the case of RLRTTIYPEQLEILYEKYLLDSNPTRKMLDHIAREVGLKKRVVQVWFQNTRARERK [T7Y], the abundance fitness is -0.436 ± 0.09. For RLRHTITPEQLEILYEKYLLDSNPTRKMLDHIAREVGLKKRVVQVWFQNTRARERK [T4H] the value was -0.145 ± 0.079. RLRDTITPEQLEILYEKYLLDSNPTRKMLDHIAREVGLKKRVVQVWFQNTRARERK [T4D]: the abundance fitness worked out at 0.304 ± 0.089. As for RLRTTITPEQLEILYEKYLLDSNPTRKMLDHIAREVGWKKRVVQVWFQNTRARERK [L38W], the abundance fitness is -0.884 ± 0.17. As to RLRTTITPEQLEILYEKYLLDSNPTRKMLDHIAREVGCKKRVVQVWFQNTRARERK [L38C], the abundance fitness was -0.301 ± 0.12. For the variant RLRTTITPEQLEILYEKYLLDSNPTRKMLDHIAREVGTKKRVVQVWFQNTRARERK [L38T], the abundance fitness was -0.933 ± 0.27. On to RLRTTITPEQLEILYEKYLLDSNPTRKMLYHIAREVGLKKRVVQVWFQNTRARERK [D30Y], for which the abundance fitness came to 0.003 ± 0.17. In the case of RLRTTITPEQLEILYEKYLLDSNPTRKMLHHIAREVGLKKRVVQVWFQNTRARERK [D30H], the abundance fitness was -0.269 ± 0.15. For the variant RLRTTITPEQWEILYEKYLLDSNPTRKMLDHIAREVGLKKRVVQVWFQNTRARERK [L11W], the abundance fitness is -0.203 ± 0.07. For the variant RLRTTITPEQQEILYEKYLLDSNPTRKMLDHIAREVGLKKRVVQVWFQNTRARERK [L11Q], the abundance fitness turned out to be 0.017 ± 0.094. Consider RLRTTITPEQLEILYEKYLLCSNPTRKMLDHIAREVGLKKRVVQVWFQNTRARERK [D21C], for which the abundance fitness is -0.378 ± 0.11. As for RLRTTITPEQLEILYEKYLLDSNPTRKMLDHIAREVGLKKRVVQVWFQNTRAPERK [R53P], the abundance fitness was -0.373 ± 0.12.

Regarding RLRTTITPEQLEILYEKYLLDSNPTRKMLDHIAREVGLKKRVVQVWFQNTRAKERK [R53K], the abundance fitness came out at 0.14 ± 0.1. For RLRTTITPEQLEILYEKYLLDSNPTRKMLDHIAREVGLKKRVVQVWFQNPRARERK [T50P] the value was -0.738 ± 0.077; for RLRTTITPEQLEILYEKYLLDSNPTRKMLDHIAREVGLKKRVVQVWFQNIRARERK [T50I], -0.042 ± 0.1; for RLRTTITPEQLEITYEKYLLDSNPTRKMLDHIAREVGLKKRVVQVWFQNTRARERK [L14T], -1 ± 0.18. For RLRTTITPEQLEIFYEKYLLDSNPTRKMLDHIAREVGLKKRVVQVWFQNTRARERK [L14F] the value was -0.718 ± 0.14.

For the variant RLRTTITPEQLEILYEKYLLDSNPTRKMLDHIAREVGLKKRVVQVWFQKTRARERK [N49K], the abundance fitness was -0.489 ± 0.16. Take RLRTTITPEQLEILYEKYLLDSNPTRKMLDHIAREVGLKKRVVQVWFQITRARERK [N49I]: the abundance fitness came out at 0.12 ± 0.12.

For RLRTTITPEQLEILYEKYLLDSNPTRKMLDHIAREVGLKKRVVQVWFQRTRARERK [N49R], the abundance fitness was -0.477 ± 0.077. Turning to RLRTTITPEQLEILYEKYLLDSNPTRKMLDHIAREVGLKKRVVQVWFQSTRARERK [N49S], the abundance fitness was -0.009 ± 0.072. In the case of RLRTTITPEQLEILYEKYLLDGNPTRKMLDHIAREVGLKKRVVQVWFQNTRARERK [S22G], the abundance fitness is -0.059 ± 0.059. Take RLRTTITPEQLEILYEKYLLDTNPTRKMLDHIAREVGLKKRVVQVWFQNTRARERK [S22T]: the abundance fitness was -0.078 ± 0.059. For RLRTGITPEQLEILYEKYLLDSNPTRKMLDHIAREVGLKKRVVQVWFQNTRARERK [T5G], the abundance fitness was -0.132 ± 0.097. Turning to RLRTTITPEQLEILYEKYLLDSNPTRKMLDHIAREVGLKKRVVQVWFCNTRARERK [Q48C], the abundance fitness was -0.287 ± 0.091. For the variant RLRTTITPEQLEILYEKYLLDSNPTRKMLDHIAREVGLKKRVVQVWFRNTRARERK [Q48R], the abundance fitness was -0.166 ± 0.07. The figure for RLRTTITPEQLEILYEKYLLDSNPTRKMLDHIAREVGLKKRVVNVWFQNTRARERK [Q44N] is -0.131 ± 0.14; for RLRTTITPEQLEILYEKYLLDSNPTRKMLDHIAREVGLKKRVVSVWFQNTRARERK [Q44S] it is -0.248 ± 0.075; for RLRTTITPEQLEILYEKYLLDSNPTRKMLDHIAREVGLKKRVVWVWFQNTRARERK [Q44W] it is -0.045 ± 0.094. For RLRTTITPEQLEILYEKYLLDSNPTRKMLDHIAREVGLKKRVVGVWFQNTRARERK [Q44G] the value was -0.031 ± 0.069. As to ALRTTITPEQLEILYEKYLLDSNPTRKMLDHIAREVGLKKRVVQVWFQNTRARERK [R1A], the abundance fitness turned out to be 0.743 ± 0.28. Take RLRTTITPEQLEILYEKYLLDSNPTRKMLDHIAREVGLKKRVLQVWFQNTRARERK [V43L]: the abundance fitness is -0.306 ± 0.083. The figure for RLRTTITPEQLEILYEKYLLDSNPTRKMLDHIAREVGLKKRVTQVWFQNTRARERK [V43T] is -0.553 ± 0.079; for RLRTTITPEQLEILYEKYLADSNPTRKMLDHIAREVGLKKRVVQVWFQNTRARERK [L20A] it is -0.103 ± 0.07; for RLRTTITPEQLEILYEKYLLDSNNTRKMLDHIAREVGLKKRVVQVWFQNTRARERK [P24N] it is -0.754 ± 0.1.

With RLRTTITPEQLEILYEKYLLDSNSTRKMLDHIAREVGLKKRVVQVWFQNTRARERK [P24S], the abundance fitness is -0.968 ± 0.16. Consider RLRTTITPEQLEILYEKYLLDSNLTRKMLDHIAREVGLKKRVVQVWFQNTRARERK [P24L], for which the abundance fitness was -0.639 ± 0.061. RLRTTITPEQLEILYEKYLLDSNFTRKMLDHIAREVGLKKRVVQVWFQNTRARERK [P24F]: the abundance fitness is -0.503 ± 0.18.

These data come from the Human Domainome abundance scans (Beltran et al. 2025).
